Test results: patent publication US20130209454A1

Key:
Test in all cases: cell-based or functional assay
[1] = target: HIV-1 Env of strain 3718.v3.c11 (HIV-1)
[2] = target: HIV-1 strain Q842.d12 envelope (gp120) (HIV-1)
[3] = target: HIV-1 Env of strain 211-9 (HIV-1)
[4] = target: HIV-1 Env of strain CAAN5342.A2 (HIV-1)
[5] = target: HIV-1 Env of strain Q23.17 (HIV-1)
[6] = target: HIV-1 strain 620345.c01 envelope (gp120) (HIV-1)
[7] = target: HIV-1 Env of strain 3817.v2.c59 (HIV-1)
[8] = target: HIV-1 Env of strain 6535.3 (HIV-1)
[9] = target: HIV-1 Env of strain CNE17 (HIV-1)
[10] = target: HIV-1 strain X1254_c3 envelope (gp120) (HIV-1)
[11] = target: HIV-1 Env of strain Q842.d12 (HIV-1)
[12] = target: HIV-1 Env of strain RHPA4259.7 (HIV-1)
[13] = target: HIV-1 Env of strain R2184.c04 (HIV-1)
[14] = target: HIV-1 strain SC422661.8 envelope (gp120) (HIV-1)
[15] = target: HIV-1 Env of strain REJO4541.67 (HIV-1)
[16] = target: HIV-1 strain CNE53 envelope (gp120) (HIV-1)
[17] = target: HIV-1 strain ZM135M.PL10a envelope (gp120) (HIV-1)
[18] = target: HIV-1 strain 6540.v4.c1 envelope (gp120) (HIV-1)
[19] = target: HIV-1 Env of strain Q461.e2 (HIV-1)
[20] = target: HIV-1 Env of strain P1981_C5_3 (HIV-1)
[21] = target: HIV-1 strain 6535.3 envelope (gp120) (HIV-1)
[22] = target: HIV-1 strain 89-F1_2_25 envelope (gp120) (HIV-1)
[23] = target: HIV-1 Env of strain T257-31 (HIV-1)
[24] = target: HIV-1 strain 231965.c01 envelope (gp120) (HIV-1)
[25] = target: HIV-1 strain CAP45.2.00.G3 envelope (gp120) (HIV-1)
[26] = target: HIV-1 Env of strain 0815.v3.c3 (HIV-1)
[27] = target: HIV-1 Env of strain 3415.v1.c1 (HIV-1)
[28] = target: HIV-1 strain TRO.11 envelope (gp120) (HIV-1)
[29] = target: HIV-1 Env of strain ZM197M.PB7 (HIV-1)
[30] = target: HIV-1 Env of strain ZM53M.PB12 (HIV-1)
[31] = target: HIV-1 strain PVO.4 envelope (gp120) (HIV-1)
[32] = target: HIV-1 strain RHPA4259.7 envelope (gp120) (HIV-1)
[33] = target: HIV-1 Env of strain HIV-16845-2.22 (HIV-1)
[34] = target: HIV-1 Env of strain T251-18 (HIV-1)
[35] = target: HIV-1 Env of strain 6811.v7.c18 (HIV-1)
[36] = target: HIV-1 Env of strain Q769.d22 (HIV-1)
[37] = target: HIV-1 strain Ce703010054_2A2 envelope (gp120) (HIV-1)
[38] = target: HIV-1 Env of strain WEAU_d15_410_787 (HIV-1)
[39] = target: HIV-1 strain R2184.04 envelope (gp120) (HIV-1)
[40] = target: HIV-1 Env of strain X1193_c1 (HIV-1)
[41] = target: HIV-1 strain 6811.v7.c18 envelope (gp120) (HIV-1)
[42] = target: HIV-1 strain 6480.v4.c25 envelope (gp120) (HIV-1)
[43] = target: HIV-1 strain C1080.c03 envelope (gp120) (HIV-1)
[44] = target: HIV-1 Env of strain TRO.11 (HIV-1)
[45] = target: HIV-1 Env of strain PVO.4 (HIV-1)
[46] = target: HIV-1 strain 1006_11_C3_1601 envelope (gp120) (HIV-1)
[47] = target: HIV-1 Env of strain QH0692.42 (HIV-1)
[48] = target: HIV-1 strain CNE20 envelope (gp120) (HIV-1)
[49] = target: HIV-1 strain Ce2010_F5 envelope (gp120) (HIV-1)
[50] = target: HIV-1 Env of strain X2131_C1_B5 (HIV-1)

B1: NIH45-46^G54F IgG (antibody, name in Kabat numbering, V domains shown)
VH: QVRLSQSGGQMKKPGESMRLSCRASGYEFLNCPINWIRLAPGRRPEWMGWLKPRFGAVNYARKFQGRVTMTRDVYSDTAFLELRSLTSDDTAVYFCTRGKYCTARDYYNWDFEHWGRGAPVTVSS
VL: EIVLTQSPATLSLSPGETAIISCRTSQSGSLAWYQQRPGQAPRLVIYSGSTRAAGIPDRFSGSRWGADYNLSISNLESGDFGVYYCQQYEFFGQGTKVQVDI
With B1 the neutralization IC50 [1] was 0.32 µg/mL, the neutralization IC80 [2] was 0.039 µg/mL and the neutralization IC50 [3] was > 50 µg/mL. For the same binder, the neutralization IC50 [4] was 0.1 µg/mL, the neutralization IC50 [5] was 0.03 µg/mL and the neutralization IC80 [6] was > 50 µg/mL. For the same binder, the neutralization IC50 [7] was > 50 µg/mL, the neutralization IC50 [8] was 0.07 µg/mL and the neutralization IC50 [9] was 0.075 µg/mL. For the same binder, the neutralization IC80 [10] was 0.043 µg/mL, the neutralization IC50 [11] was 0.011 µg/mL and the neutralization IC50 [12] was 0.005 µg/mL. It also gave a neutralization IC50 [13] of 0.015 µg/mL, a neutralization IC80 [14] of 0.1 µg/mL and a neutralization IC50 [15] of 0.007 µg/mL. For the same binder, the neutralization IC80 [16] was 0.024 µg/mL, the neutralization IC80 [17] was 0.43 µg/mL and the neutralization IC80 [18] was > 50 µg/mL. For the same binder, the neutralization IC50 [19] was 0.03 µg/mL, the neutralization IC50 [20] was 0.03 µg/mL and the neutralization IC80 [21] was 0.27 µg/mL. For the same binder, the neutralization IC80 [22] was > 50 µg/mL, the neutralization IC50 [23] was 0.17 µg/mL and the neutralization IC80 [24] was 0.062 µg/mL. For the same binder, the neutralization IC80 [25] was > 50 µg/mL, the neutralization IC50 [26] was < 0.001 µg/mL and the neutralization IC50 [27] was < 0.001 µg/mL. It also gave a neutralization IC80 [28] of 0.3 µg/mL, a neutralization IC50 [29] of 0.09 µg/mL and a neutralization IC50 [30] of 0.08 µg/mL. The neutralization IC80 [31] was 0.25 µg/mL, the neutralization IC80 [32] was 0.02 µg/mL and the neutralization IC50 [33] was 0.59 µg/mL. It also gave a neutralization IC50 [34] of 0.41 µg/mL, a neutralization IC50 [35] of 0.017 µg/mL and a neutralization IC50 [36] of 0.005 µg/mL. For the same binder, the neutralization IC80 [37] was 0.07 µg/mL, the neutralization IC50 [38] was < 0.001 µg/mL and the neutralization IC80 [39] was 0.054 µg/mL. For the same binder, the neutralization IC50 [40] was < 0.001 µg/mL, the neutralization IC80 [41] was 0.063 µg/mL and the neutralization IC80 [42] was 0.046 µg/mL. For the same binder, the neutralization IC80 [43] was 2.26 µg/mL, the neutralization IC50 [44] was 0.11 µg/mL and the neutralization IC50 [45] was 0.07 µg/mL. For the same binder, the neutralization IC80 [46] was 0.024 µg/mL, the neutralization IC50 [47] was 0.56 µg/mL and the neutralization IC80 [48] was 3.91 µg/mL. It also gave a neutralization IC80 [49] of 0.186 µg/mL and a neutralization IC50 [50] of 0.1 µg/mL.
